Test results as given in the supplement of paper PMC9170038.

Tested on: MS2 coat protein
Assay: apparent KD of MS2 coat protein; designed switch direction (-1 OFF switch, 1 ON switch): -1; higher = weaker reporter binding
Summary of the method: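 Each step of the titration lasted 0.8–1.5 h at the lowest concentration and 10–20 min at the highest. The protein, SNAP-549-labelled MS2 coat protein, went from 0.7 or 1.5 nM doubling to 3 µM over RNA switches transcribed on Illumina chips by stalled E. coli RNA polymerase. Normalised cluster fluorescence was curve-fitted, and the per-design median over clusters is given as apparent KD.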

[1] = Eterna round: R95, input ligand: microRNA oligo, concentration not stated
[2] = Eterna round: R95, input ligand: FMN 200 uM
[3] = Eterna round: R95, input ligand: none
[4] = input ligand: microRNA oligo, concentration not stated

AUAUUGUGAGGAUAUGUACUUAGUAUCGAAAGAUACUAAGUUCAGAAGGCACAUGAGGAUCACCCAUGUUUCUC [Long static hairpin v13] (Eterna round: R97, puzzle: Exclusion 4)
apparent KD of MS2 coat protein (input ligand: FMN 200 uM): 805 nM | apparent KD of MS2 coat protein (input ligand: none): 63.5 nM

AUAUUAAUAGUAAGGAUAUGCGUAUAUGUAGUUAUGCAGAAGGUACAUGAGGAUCACCCAUGUAUUAAUGUGUA [LRO-BmodExc4-04-Oppy's Opus] (Eterna round: R97, puzzle: Brourd's mod of Exclusion 4)
apparent KD of MS2 coat protein (input ligand: FMN 200 uM): 16 nM | apparent KD of MS2 coat protein (input ligand: none): 16 nM

GUGUGCUGAGGAUAUACAGAGGAAGAUAAGAUAAGAUAAUGACAUGAGGAUCACCCAUGUAGAAGGCAGAGUGU [Excluse me!! 15 - Jieux - Exclusion 2] (puzzle: Exclusion 2)
apparent KD of MS2 coat protein [1]: 30.5 nM

UUUUACUUAGGAUAUACAUUUUUUUAUUUAUUUAUAAUAUUACAUGAGGAUCACCCAUGUAGAAGGGAGAUUUU [My Design] (puzzle: Exclusion 2)
apparent KD of MS2 coat protein [1]: 78.1 nM

GCCGUAAAUGUGAGGAUAUACCUAUGGAAACAUAGGUAGAAGGCACAUGAGGAUCACCCAUGUUCUUAAUCGGC [Mat - Exclusion 4 - Eli Mod - D2] (Eterna round: R97, puzzle: Brourd's mod of Exclusion 4)
apparent KD of MS2 coat protein (input ligand: FMN 200 uM): 689 nM | apparent KD of MS2 coat protein (input ligand: none): 212 nM

CUAGUCCGAGGAUAUAUAUUGUGAAACAUGAGGAUCACCCAUGUUAUAAUAUGGAAAUAAAUAGAAGGCGGACUAG [Mat - Exclusion 5 - JL mod - D57] (puzzle: Exclusion 5)
apparent KD of MS2 coat protein [2]: 23.3 nM | apparent KD of MS2 coat protein [1]: 38.5 nM | apparent KD of MS2 coat protein [3]: 18.8 nM

AAUAACAGAGGAUAUACUGUUUUAUGUGUUUGUUGUUUUGAACAUGAGGAUCACCCAUGUAGAAGGCUGAAUGA [JMF 68] (puzzle: Exclusion 2)
apparent KD of MS2 coat protein [1]: 24.2 nM

GUCGUGCGGCUUUGCUGUACGAGUACAUGAGGAUCACCCAUGUAGGAUAUGGUACGCUUUGCGUGCCAGAAGGGCGUGCGUUGG [salish99_ExNG3_r04_006] (Eterna round: R96, puzzle: Exclusion NG 3)
apparent KD of MS2 coat protein (input ligand: FMN 200 uM): 33.3 nM | apparent KD of MS2 coat protein [4]: 23.9 nM | apparent KD of MS2 coat protein (input ligand: none): 29.9 nM

CUGAUGUCAGGAUAUCAGAAAAGGCGCAAGGACACGCCAAAUGAGAAGGGACAUGAGGAUCACCCAUGUAAAAC [Orata] (puzzle: Exclusion 4)
apparent KD of MS2 coat protein [2]: 107 nM | apparent KD of MS2 coat protein [1]: 20.8 nM | apparent KD of MS2 coat protein [3]: 18.1 nM

UUUAAUUUUUUUUUUUUACAAGCUUUUUGCUCGUCUUAUACAUGAGGAUCACCCAUGUGGGUGAAGGAUAAAUUAUC [JMF 26] (puzzle: Sensor v3, turn-off variant 2)
apparent KD of MS2 coat protein [2]: 35.6 nM | apparent KD of MS2 coat protein [1]: 36.2 nM | apparent KD of MS2 coat protein [3]: 34.3 nM

AUCGGACAUGAGGAUCACCCAUGUCAGGAUAUCUGGAACCAUUGGCAGAUGAGGGAAAAGAGAAGGGACAGUGG [EX1 C.3] (Eterna round: R97, puzzle: Exclusion 1)
apparent KD of MS2 coat protein (input ligand: FMN 200 uM): 20.2 nM | apparent KD of MS2 coat protein (input ligand: none): 18.5 nM

CUUUACAAGCUAAGAUCCUACAUGAGGAUCACCCAUGUGGUCCGGUGACGUGAGUCACCGGACUUAGCUCGUCUUGG [salish99_S_TOV1_R5_095] (Eterna round: R97, puzzle: Sensor, turn-off variant 1)
apparent KD of MS2 coat protein (input ligand: FMN 200 uM): 30.1 nM | apparent KD of MS2 coat protein (input ligand: none): 32.2 nM

UUGUUAUAUGUAGGAUAUGCGUAUUAUUAUUAUGCAGAAGGACAUGAGGAUCACCCAUGUGUAUUAUUAUUAUAUAUUAUAUAU [Title] (Eterna round: R96, puzzle: Exclusion NG 1)
apparent KD of MS2 coat protein (input ligand: FMN 200 uM): 41.3 nM | apparent KD of MS2 coat protein [4]: 15.5 nM | apparent KD of MS2 coat protein (input ligand: none): 21.1 nM

UUGUUAUGUGUAGGAUAUGCAUAUUAUUAUUAUGCAGAAGGACAUGAGGAUCACCCAUGUGUAUUGUUAUUAUAUAUUAUAUAU [Title] (Eterna round: R96, puzzle: Exclusion NG 1)
apparent KD of MS2 coat protein [4]: 17.1 nM

AGCUGUGGCCGAGGAUAUCCAGCCUUAAAUACCGACGUAUAGUCGGACAUGAGGAUCACCCAUGUGGAGAAGGCGGUCUCAGCA [Eli eng2 - 045] (Eterna round: R96, puzzle: Exclusion NG 2)
apparent KD of MS2 coat protein (input ligand: FMN 200 uM): 126 nM | apparent KD of MS2 coat protein [4]: 36.4 nM | apparent KD of MS2 coat protein (input ligand: none): 43.6 nM

CAGCUGAAAGUGAGGAUAUCUAGAGCGAUAGCUCUAGAGAAGGCACAUGAGGAUCACCCAUGUGAUCACAGCUG [BmEx4/7-A4] (Eterna round: R97, puzzle: Brourd's mod of Exclusion 4)
apparent KD of MS2 coat protein (input ligand: FMN 200 uM): 1320 nM | apparent KD of MS2 coat protein (input ligand: none): 249 nM

CGUGACUGAGGAUAUCUAUAAUGUCACAUGAGGAUCACCCAUGUCCAGCGAAAGCUGGAGGGAGAAGGCAGUCACG [Fiskers Ex 5 - 33] (puzzle: Exclusion 5)
apparent KD of MS2 coat protein [2]: 29.4 nM | apparent KD of MS2 coat protein [1]: 55.5 nM | apparent KD of MS2 coat protein [3]: 74.6 nM

AGUAACCGUCACGAAAGUGAUGGUUACACAAGAAAUGAAACAUGAGGAUCACCCAUGUCCUCAUUUGCUCGUCUUAU [Sensor 3 - 38] (puzzle: Sensor v3, turn-off variant 2)
apparent KD of MS2 coat protein [2]: 176 nM | apparent KD of MS2 coat protein [1]: 288 nM | apparent KD of MS2 coat protein [3]: 259 nM

AAUAUCGUAGGAUAUUAGUGCUCAGACAUGAGGAUCACCCAUGUUUGGUGGGUUGGAGAAUGAGAAGGGCGAUGAA [EX5 #17] (Eterna round: R97, puzzle: Exclusion 5)
apparent KD of MS2 coat protein (input ligand: FMN 200 uM): 376 nM | apparent KD of MS2 coat protein (input ligand: none): 687 nM

AACACUGUAGGAUAUCAUGAACUGGACUUGAGGAUCACCCAAGUGUAUCCUGGAGUGCCGUGAGAAGGACGGAAAA [Erzalelaan] (Eterna round: R97, puzzle: Exclusion 5)
apparent KD of MS2 coat protein (input ligand: FMN 200 uM): 56.5 nM | apparent KD of MS2 coat protein (input ligand: none): 46.9 nM

AUUUACAAGCUAAGAUCCUACAUGAGGAUCACCCAUGUGGUCCGGUGACGUGAGUCACCGGACUUAGCUCGUCUUGG [salish99_S_TOV1_R5_083] (Eterna round: R97, puzzle: Sensor, turn-off variant 1)
apparent KD of MS2 coat protein (input ligand: FMN 200 uM): 54.4 nM | apparent KD of MS2 coat protein (input ligand: none): 61.4 nM

AUUGAUGUUGAGGAUAUGCUUUUAUUUAUUAUAGCAGAAGGCGAUACAUGAGGAUCACCCAUGUUCAUGGCUUU [JR_E6_Sub097] (puzzle: Exclusion 6)
apparent KD of MS2 coat protein [1]: 11 nM

GGUGAGCUAGGAUAUGCUUUGGGAACGCAUUCCUUCGAUAAACUUGAGGAUCACCCAAGUAGAAGGAGCUUGCC [salish99_ex2_r4_029] (Eterna round: R97, puzzle: Exclusion 2)
apparent KD of MS2 coat protein (input ligand: FMN 200 uM): 158 nM | apparent KD of MS2 coat protein (input ligand: none): 34 nM

UGAUCUAGCGGAGGAUAUACAUGAGGAUCACCCAUGUAGUUGUCUGUACCGUAGUGCAGACUUGUGUAGAAGGCCGCUAGAUCU [JL ENG2 3.62] (Eterna round: R96, puzzle: Exclusion NG 2)
apparent KD of MS2 coat protein (input ligand: FMN 200 uM): 25.9 nM | apparent KD of MS2 coat protein [4]: 9.62 nM | apparent KD of MS2 coat protein (input ligand: none): 14.3 nM

GACUGAAUUUUGUUUGGUUACAUGAGGAUCACCCAUGUUGGUCUAAGAACAUGUCUUUUGUACGCUUGUCUUAUAUA [JR_SV3TOV1_Sub069] (puzzle: Sensor v3, turn-off variant 1)
apparent KD of MS2 coat protein [2]: 68.9 nM | apparent KD of MS2 coat protein [1]: 44.9 nM | apparent KD of MS2 coat protein [3]: 100 nM

UAUUAGCAAGCGAGGUCCCACAUGAGGAUCACCCAUGUGCUCGUCUUAUAAGGUACUGUGACGAAAGUCACGGUACC [Sensor 3, v1 - 91 v8] (Eterna round: R97, puzzle: Sensor, turn-off variant 1)
apparent KD of MS2 coat protein (input ligand: FMN 200 uM): 14.7 nM | apparent KD of MS2 coat protein (input ligand: none): 13.1 nM

AAUAAGGGAGGAUAUGCGGAACGGUUUGUUCUCAGUGAGGCACAUGAGGAUCACCCAUGUAGAAGGCCCGGCAA [Orinar] (puzzle: Exclusion 2)
apparent KD of MS2 coat protein [1]: 13 nM

UGAAACCUAGGAUAUACAUGAGGAUCACCCAUGUAAUGUAGUAUAGUAUAUGUAAGAUGUAGAAGGAGGAAAGU [LRO-Excl05-27-Smart Aleck] (Eterna round: R97, puzzle: Exclusion 3)
apparent KD of MS2 coat protein (input ligand: FMN 200 uM): 26.3 nM | apparent KD of MS2 coat protein (input ligand: none): 37.7 nM

ACAUGAGGAUCACCCAUGUCCGGCUGGUCCGUCUCGGCUGUCGAGGAUAUAGCUCGGUGUCCGCGCUAGAAGGUGGGAGCCGGC [Aenatbe mod 72] (Eterna round: R96, puzzle: Exclusion NG 3)
apparent KD of MS2 coat protein (input ligand: FMN 200 uM): 212 nM | apparent KD of MS2 coat protein [4]: 134 nM | apparent KD of MS2 coat protein (input ligand: none): 217 nM

AUUGAUAGCACAGGAUAUUGAGAUUUGAAUUGACAAGAAGGGUGUACAUGAGGAUCACCCAUGUAAUGGUUGAGUGGUUGAUUA [JR_ExcNG1_Sub003] (Eterna round: R96, puzzle: Exclusion NG 1)
apparent KD of MS2 coat protein (input ligand: FMN 200 uM): 953 nM | apparent KD of MS2 coat protein [4]: 829 nM | apparent KD of MS2 coat protein (input ligand: none): 1140 nM

CAGGGCAUAGGAUAUGCGGGUAAACACCAUGCAUUAGAAUGACAUGAGGAUCACCCAUGUAGAAGGAUGAUAGC [Eternabot (L1) Solution 98] (Eterna round: R97, puzzle: Exclusion 2)
apparent KD of MS2 coat protein (input ligand: FMN 200 uM): 28.3 nM | apparent KD of MS2 coat protein (input ligand: none): 29.2 nM

GGAACGCGAGGAUAUACAUAGCCGGAAACGGCAAUAGCCUCACAUGAGGAUCACCCAUGUAGAAGGCGCGGAGA [AK-MS2ROC-r4-exclusion2-24] (Eterna round: R97, puzzle: Exclusion 2)
apparent KD of MS2 coat protein (input ligand: FMN 200 uM): 119 nM | apparent KD of MS2 coat protein (input ligand: none): 17.2 nM

CGUGUGUCAGGAUAUUAGUAAUGUAUGGAUACAUAUAUUACUGAGAAGGGACAUGAGGAUCACCCAUGUAUACG [JR_Ex4_Sub059] (Eterna round: R97, puzzle: Exclusion 4)
apparent KD of MS2 coat protein (input ligand: FMN 200 uM): 158 nM | apparent KD of MS2 coat protein (input ligand: none): 79.9 nM

AAAUUCAGAGGAUAUGCGCAUAGAUAAGACUUUUUUUCUUAACAUGAGGAUCACCCAUGUAGAAGGCUGUAAAC [Ex2 #61] (Eterna round: R97, puzzle: Exclusion 2)
apparent KD of MS2 coat protein (input ligand: FMN 200 uM): 18.8 nM | apparent KD of MS2 coat protein (input ligand: none): 16.2 nM
